According to US20210269549A1, “ANTI-SAS1B ANTIBODIES, ASSOCIATED METHODS OF USE, AND COMPOSITIONS AND METHODS FOR DETECTING AND TREATING CANCER” (UNIVERSITY OF VIRGINIA PATENT FOUNDATION, priority 2015, published 2021):
Values joined by “and” are separate entries in the source; they are usually repeats but may differ in a detail not shown here. Equal entries are not always repeated. “Also recorded” adds a separate entry of the source.

T1: human SAS1B protein with a C-terminal V5 tag expressed by HEK293T cells (Homo sapiens, UniProt Q6HA08)
T1 construct: expressed in transfected cells; host or cells: HEK293T
T1 sequence (Q6HA08 24-431): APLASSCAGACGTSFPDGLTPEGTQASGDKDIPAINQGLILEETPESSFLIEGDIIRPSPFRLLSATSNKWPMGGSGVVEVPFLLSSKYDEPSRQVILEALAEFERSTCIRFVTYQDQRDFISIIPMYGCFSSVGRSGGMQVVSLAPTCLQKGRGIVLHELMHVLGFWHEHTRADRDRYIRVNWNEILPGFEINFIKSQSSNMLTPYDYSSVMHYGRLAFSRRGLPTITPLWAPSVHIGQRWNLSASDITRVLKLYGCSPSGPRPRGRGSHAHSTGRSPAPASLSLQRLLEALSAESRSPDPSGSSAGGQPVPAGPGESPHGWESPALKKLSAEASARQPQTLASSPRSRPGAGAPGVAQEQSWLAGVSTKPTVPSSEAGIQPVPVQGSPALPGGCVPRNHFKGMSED


Experiments:
Format in all cases: cell-based
[1] = target: T1, human SAS1B protein with a C-terminal V5 tag expressed by HEK293T cells; experiment: Double immunofluorescence on fixed and permeabilized HEK293T cells transfected with SAS1B SV-A with V5 tag; conditions: for IF signal / colocalization with V5-tag epitope signal: SV-A transfected HEK293T, PFA fixed, methanol permeabilized, mAbs at 10 ug/ml
Procedure: Experiments were conducted to determine the specificity of anti-human SAS1B monoclonal antibodies SB1, SB2, SB3, SB4, SB5, SB6 and SB7 against the human SAS1B protein with a C-terminal V5 tag expressed by HEK293T cells by double immuno-fluorescence from two different SAS1B epitopes. HEK293T cells were seeded at ˜100,000 per well of a 24 well plate containing a lysine-coated 12 mm coverslip. 24 hours later, the cells were transfected with 1 ug of SV-A plasmid with 2 ul of TURBOFECT® transfection reagent followed by no change of media. 48 h later the cells were PFA (paraformaldehyde) fixed and methanol permeabilized for an IF study as follows.
The cells were removed from cell culture media and fixed in 4% PFA in PBS, 300 ul for 15 min. The cells were washed in 1 ml PBS in wells for 3 times and permeabilized in methanol (100%) for 15 min in 0.5 ml at RT. The cells were washed in PBS 1 ml for 3 times and blocked in complete culture media (DMEM) with 5% normal goat serum (NGS) for 30 min (i.e. BB, blocking buffer). The first antibody in BB was added for 1 h at 10 ug/ml for mouse monoclonal antibodies (SB1, SB2, SB3, SB4, SB5, SB6, SB7) and 5 ug/ml for anti-V5 DYLIGHT® 488 (green) rabbit (a rabbit polyclonal antibody to V5 tag). The cells were washed in PBS 3 times. The second antibody in BB (Goat anti-mouse Alexa Flour 594, red) was added for 1 h at 5 ug/ml (1:200 dilution). The cells were washed in PBS 3 times. The cells were mounted in slow fade DAPI 3 ul and stored at 4° C. before confocal imaging.

[2] = tested on: M1 (renal cancer cell line); experiment: Live cell surface indirect immunofluorescence, M1; conditions: live cells on ice; two cancer cell lines (M1, MMMT539)
Procedure: Anti-Human SAS1B mouse monoclonal antibodies reactive to SAS1B epitope on live cancer cell surfaces were identified by indirect immuno-fluorescence (IF) for the development of therapeutic antibodies. M1 (renal cancer cell line) and MMMT539 (uterine cancer cell line) cells were seeded at 20,000 cells in 1 ml per well on collagen coated coverslips in 24 well plates. The media was replaced 22 h post seeding. For antibody probing, cells were kept on ice for ˜8 to 18 min following 47 h post-seeding. The first antibody was added at 10 ug/ml, 20 ug/ml or 50 ug/ml in complete culture media with 15 mM NaN3 (pre-chilled), incubated on ice for 60 min, and the cells washed in complete culture media with 15 mM NaN3 in cold 1 ml, ×3. The second antibody, goat-antimouse-AF488 (pre-chilled), was added to the wells at 5 ug/ml in complete culture media with 15 mM NaN3 for 60 min on ice. The cells were washed in complete media with 15 mM NaN3, 1 ml, ×3 on ice. The cells were fixed in 4% PFA in PBS for 20 minutes on ice. The cells were washed in distilled water at RT, 1 ml, ×1 and mounted in 8 ul of SLOWFADE® Diamond Antifade Mountant with DAPI. An anti-EGFR monoclonal antibody was used as a positive control on live M1 cells. Epidermal growth factor receptor (EGFR) is a transmembrane glycoprotein and member of protein kinase superfamily. […] Anti-human CABYR monoclonal antibody 3A4 was used as a negative control on live MMMT539 cells. CABYR is a calcium binding cytoskeleton sperm protein with no transmembrane domain.

[3] = tested on: human uterine cancer cells; experiment: ADC assay on human uterine cancer cells using Fab-anti-mouse IgG Fc (Duocarmycin DM conjugated or unconjugated); conditions: for Cytotoxic effect / Viability: 4 days; for Cell killing effects as antibody-duocarmycin conjugates on SAS1B+ human tumor cells (FIG. 28): uterine tumor cells in vitro; for Viability: 0.01 nM mAb
Procedure: The cytotoxic effect of anti-human SAS1B monoclonal antibodies SB1, SB3 and SB4 on human uterine cancer cells was investigated by ADC assay using Fab-anti-mouse IgG Fc conjugated to Duocarmycin DM with a cleavable linker. An average of 3 experiments were done in triplicate. […] At 0.01 nM the viability was only 40% compared to ˜80% viability for SB4 mAb.
The cytotoxic effect of anti-human SAS1B mAbs SB1, SB2, SB3, SB4 and SB5 on human uterine cancer cells by ADC assay using unconjugated Fab-anti-mouse IgG Fc was examined. An average of 1 or 2 experiments in triplicate were performed. […] See FIGS. 10A-B. The cytotoxic effect of anti-human SAS1B mAbs SB1, SB2, SB3, SB4, and SB5 was tested on human uterine cancer cells by ADC assay using Fab-anti-mouse IgG Fc conjugated to Duocarmycin DM with cleavable linker. An average of 3 experiments were completed in triplicate. […] At 0.01 nM the viability for SB3, SB2, SB4 and SB5 were 42%, 66%, 80% and 87% respectively.

[4] = Fab-anti-mouse IgG Fc conjugated to Duocarmycin DM with cleavable linker
[5] = isotype-specific unconjugated Fab

Molecule	IF signal / colocalization with V5-tag epitope signal [1]	Signal on mock transfected HEK293T cells [1]	Surface labelling of live cancer cells [2]	Cytotoxic effect [3, 4]	Cytotoxic effect [3, 5]	Cell killing effects as antibody-duocarmycin conjugates on SAS1B+ human tumor cells (FIG. 28) [3]	Viability [3, 4]
SB2: mouse anti-human SAS1B monoclonal antibody, IgG2b; VH SEQ ID NO:14, VL SEQ ID NO:15 (antibody, listed as Mus musculus, V domains shown) VH: EVQLQQSGPELVKPGSSVKISCKASGYTFTDYNMVWVKQSHGKSLEWIGAVNPNNGGTSYNQKFKGKATLTVDKSSSTAYMELRSLTSEDSAVYYCVPNWDWFAYWGQGTLVTVSA VL: DVLMTQTPLSLPVSLGDQASISCRSSQSLVHSNGNTYLEWYLQKPGQSPNLLIYKVSNRFSGVPDRFSGSGSGTDFTLKISRVEAEDLGVYYCFQGSHVPFTFGSGTKLEIK	colocalize (merge) with V5-tag epitope signal	no V5 signal or SAS1B signal	labelled the surface	strong cytotoxic effect at 0.1 nM and higher concentrations	no cytotoxic effect	sub-nanomolar concentrations	
SB4: mouse anti-human SAS1B monoclonal antibody, IgG2a; VH SEQ ID NO:16, VL SEQ ID NO:17 (antibody, listed as Mus musculus, V domains shown) VH: EVQLQQSGPELVKPGSSVKISCKPSGYTFTDYNMVWMKQSHGKSLEWIGAINPNNGGTTYNQKFKGKATLTVDKSSSTAYMELRSLTSEDSAVYYCAPNWDWFAYWGQGTLVTVSA VL: DVLMTQTPLSLPVSLGDQASISCRSSQSILHSNGNTYLEWYLQKPGQSPKLLIYKVSNRFSGVPDRFSGSGSGTDFTLKISRVEAEDLGVYYCFQGSHVPFTFGSGTKLEIK	colocalize (merge) with V5-tag epitope signal; also recorded: recognizing native SAS1B in fixed cells	no V5 signal or SAS1B signal	labelled the surface	cytotoxic effect at 0.01, 0.1 nM and higher concentrations; also recorded: strong cytotoxic effect at 0.1 nM and higher concentrations	no cytotoxic effect	sub-nanomolar concentrations	~80%
SB3: mouse anti-human SAS1B monoclonal antibody, IgG2b; VH SEQ ID NO:14, VL SEQ ID NO:15 (antibody, listed as Mus musculus, V domains shown) VH: EVQLQQSGPELVKPGSSVKISCKASGYTFTDYNMVWVKQSHGKSLEWIGAVNPNNGGTSYNQKFKGKATLTVDKSSSTAYMELRSLTSEDSAVYYCVPNWDWFAYWGQGTLVTVSA VL: DVLMTQTPLSLPVSLGDQASISCRSSQSLVHSNGNTYLEWYLQKPGQSPNLLIYKVSNRFSGVPDRFSGSGSGTDFTLKISRVEAEDLGVYYCFQGSHVPFTFGSGTKLEIK	colocalize (merge) with V5-tag epitope signal	no V5 signal or SAS1B signal	labelled the surface	strongest cytotoxic effect; also recorded: strong cytotoxic effect at 0.1 nM and higher concentrations	no cytotoxic effect	sub-nanomolar concentrations	40% and 42%
SB5: mouse anti-human SAS1B monoclonal antibody, IgG2b; VH SEQ ID NO:16, VL SEQ ID NO:18 (antibody, listed as Mus musculus, V domains shown) VH: EVQLQQSGPELVKPGSSVKISCKPSGYTFTDYNMVWMKQSHGKSLEWIGAINPNNGGTTYNQKFKGKATLTVDKSSSTAYMELRSLTSEDSAVYYCAPNWDWFAYWGQGTLVTVSA VL: DVLMTQIPLSLPVSLGDQASISCRSSQSILHSNGNTYLEWYLQKPGQSPKLLIYKVSNRFSGVPDRFSGSGSGTDFTLKISRVEAEDLGVYYCFQGSHVPFTFGSGTKLEIK	colocalize (merge) with V5-tag epitope signal	no V5 signal or SAS1B signal	labelled the surface	strong cytotoxic effect at 0.1 nM and higher concentrations	no cytotoxic effect	sub-nanomolar concentrations	
SB1: mouse anti-SAS1B monoclonal antibody, IgG2a; VH SEQ ID NO:12, VL SEQ ID NO:13 (antibody, listed as Mus musculus, V domains shown) VH: EVQLQQSGPELVKPGSSVKISCKASGYTFTDYNMDWVKQSHGKSLEWIGAINPNNGGTSYNQKFKGKATLTVDKSSSTAYMELRSLTSEDSAVYYCATNEYWGQGTTLTVSS VL: NIVMTQSPKSMSMSVGERVTLSCKASENVGTYVSWYQQKPEQSPKLLIYGASNRYTGVPDRFTGSGSATDFTLTISSVQAEDLADYHCGQSYSYPWTFGGGTKLEIK	lack of a signal	no V5 signal or SAS1B signal	labelled the surface	no cytotoxic effect	no cytotoxic effect	no cytotoxic effects	
